# B1: Peroxisomal bifunctional enzyme (Homo sapiens), Q08426 (parent)
# chain: MAEYTRLHNALALIRLRNPPVNAISTTLLRDIKEGLQKAVIDHTIKAIVICGAEGKFSAGADIRGFSAPRTFGLTLGHVVDEIQRNEKPVVAAIQGMAFGGGLELALGCHYRIAHAEAQVGLPEVTLGLLPGARGTQLLPRLTGVPAALDLITSGRRILADEALKLGILDKVVNSDPVEEAIRFAQRVSDQPLESRRLCNKPIQSLPNMDSIFSEALLKMRRQHPGCLAQEACVRAVQAAVQYPYEVGIKKEEELFLYLLQSGQARALQYAFFAERKANKWSTPSGASWKTASARPVSSVGVVGLGTMGRGIVISFARARIPVIAVDSDKNQLATANKMITSVLEKEASKMQQSGHPWSGPKPRLTSSVKELGGVDLVIEAVFEEMSLKKQVFAELSAVCKPEAFLCTNTSALDVDEIASSTDRPHLVIGTHFFSPAHVMKLLEVIPSQYSSPTTIATVMNLSKKIKKIGVVVGNCFGFVGNRMLNPYYNQAYFLLEEGSKPEEVDQVLEEFGFKMGPFRVSDLAGLDVGWKSRKGQGLTGPTLLPGTPARKRGNRRYCPIPDVLCELGRFGQKTGKGWYQYDKPLGRIHKPDPWLSKFLSRYRKTHHIEPRTISQDEILERCLYSLINEAFRILGEGIAASPEHIDVVYLHGYGWPRHKGGPMFYASTVGLPTVLEKLQKYYRQNPDIPQLEPSDYLKKLASQGNPPLKEWQSLAGSPSSKL
# partner: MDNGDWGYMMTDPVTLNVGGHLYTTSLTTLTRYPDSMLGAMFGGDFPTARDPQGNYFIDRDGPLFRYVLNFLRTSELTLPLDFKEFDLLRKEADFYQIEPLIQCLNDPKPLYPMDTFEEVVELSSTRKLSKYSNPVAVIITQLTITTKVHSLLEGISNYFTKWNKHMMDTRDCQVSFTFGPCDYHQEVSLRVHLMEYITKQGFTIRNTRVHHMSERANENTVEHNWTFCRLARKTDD
# B2: Mediator of RNA polymerase II transcription subunit 18 (Homo sapiens), Q9BUE0 (parent)
# chain: MEAPPVTMMPVTGGTINMMEYLLQGSVLDHSLESLIHRLRGLCDNMEPETFLDHEMVFLLKGQQASPFVLRARRSMDRAGAPWHLRYLGQPEMGDKNRHALVRNCVDIATSENLTDFLMEMGFRMDHEFVAKGHLFRKGIMKIMVYKIFRILVPGNTDSTEALSLSYLVELSVVAPAGQDMVSDDMKNFAEQLKPLVHLEKIDPKRLM
# partner: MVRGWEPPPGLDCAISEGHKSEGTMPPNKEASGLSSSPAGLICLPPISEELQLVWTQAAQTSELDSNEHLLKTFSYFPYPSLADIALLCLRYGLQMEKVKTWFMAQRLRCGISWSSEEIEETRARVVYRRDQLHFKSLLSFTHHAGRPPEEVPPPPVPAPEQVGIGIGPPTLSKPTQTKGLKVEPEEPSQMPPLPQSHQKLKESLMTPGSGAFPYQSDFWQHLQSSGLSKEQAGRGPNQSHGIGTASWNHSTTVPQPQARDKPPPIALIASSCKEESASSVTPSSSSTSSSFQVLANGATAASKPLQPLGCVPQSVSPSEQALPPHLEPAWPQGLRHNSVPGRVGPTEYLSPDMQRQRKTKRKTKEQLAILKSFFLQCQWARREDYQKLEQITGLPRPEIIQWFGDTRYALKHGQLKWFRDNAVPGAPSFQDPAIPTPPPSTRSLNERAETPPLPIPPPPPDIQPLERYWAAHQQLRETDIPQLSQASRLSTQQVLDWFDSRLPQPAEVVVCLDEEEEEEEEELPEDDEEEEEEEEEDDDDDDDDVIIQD
# B3: Tripartite motif-containing protein 59 (Homo sapiens), Q8IWR1 (parent)
# chain: MHNFEEELTCPICYSIFEDPRVLPCSHTFCRNCLENILQASGNFYIWRPLRIPLKCPNCRSITEIAPTGIESLPVNFALRAIIEKYQQEDHPDIVTCPEHYRQPLNVYCLLDKKLVCGHCLTIGQHHGHPIDDLQSAYLKEKDTPQKLLEQLTDTHWTDLTHLIEKLKEQKSHSEKMIQGDKEAVLQYFKELNDTLEQKKKSFLTALCDVGNLINQEYTPQIERMKEIREQQLELMALTISLQEESPLKFLEKVDDVRQHVQILKQRPLPEVQPVEIYPRVSKILKEEWSRTEIGQIKNVLIPKMKISPKRMSCSWPGKDEKEVEFLKILNIVVVTLISVILMSILFFNQHIITFLSEITLIWFSEASLSVYQSLSNSLHKVKNILCHIFYLLKEFVWKIVSH
# partner: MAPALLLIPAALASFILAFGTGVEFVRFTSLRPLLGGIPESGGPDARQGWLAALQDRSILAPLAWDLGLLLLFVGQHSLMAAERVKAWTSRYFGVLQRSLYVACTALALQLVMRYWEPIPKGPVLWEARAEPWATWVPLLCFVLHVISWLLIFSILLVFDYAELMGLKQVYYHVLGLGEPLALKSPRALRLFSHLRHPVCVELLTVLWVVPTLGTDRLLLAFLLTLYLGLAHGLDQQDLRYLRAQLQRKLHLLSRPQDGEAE
# B4: Conserved oligomeric Golgi complex subunit 2 (Homo sapiens), Q14746 (parent)
# chain: MEKSRMNLPKGPDTLCFDKDEFMKEDFDVDHFVSDCRKRVQLEELRDDLELYYKLLKTAMVELINKDYADFVNLSTNLVGMDKALNQLSVPLGQLREEVLSLRSSVSEGIRAVDERMSKQEDIRKKKMCVLRLIQVIRSVEKIEKILNSQSSKETSALEASSPLLTGQILERIATEFNQLQFHAVQSKGMPLLDKVRPRIAGITAMLQQSLEGLLLEGLQTSDVDIIRHCLRTYATIDKTRDAEALVGQVLVKPYIDEVIIEQFVESHPNGLQVMYNKLLEFVPHHCRLLREVTGGAISSEKGNTVPGYDFLVNSVWPQIVQGLEEKLPSLFNPGNPDAFHEKYTISMDFVRRLERQCGSQASVKRLRAHPAYHSFNKKWNLPVYFQIRFREIAGSLEAALTDVLEDAPAESPYCLLASHRTWSSLRRCWSDEMFLPLLVHRLWRLTLQILARYSVFVNELSLRPISNESPKEIKKPLVTGSKEPSITQGNTEDQGSGPSETKPVVSISRTQLVYVVADLDKLQEQLPELLEIIKPKLEMIGFKNFSSISAALEDSQSSFSACVPSLSSKIIQDLSDSCFGFLKSALEVPRLYRRTNKEVPTTASSYVDSALKPLFQLQSGHKDKLKQAIIQQWLEGTLSESTHKYYETVSDVLNSVKKMEESLKRLKQARKTTPANPVGPSGGMSDDDKIRLQLALDVEYLGEQIQKLGLQASDIKSFSALAELVAAAKDQATAEQP
# B5: Coiled-coil domain-containing protein 33 (Homo sapiens), Q8N5R6-5 (parent)
# chain: MGEPGPPSPPAPKAAPGLIDSFSEMNNYRRAMQKMAEDILSLRRQASILEGENRILRSRLAQQEEEEGQGKASEAQNTVSMKQKLLLSELDMKKLRDRVQHLQNELIRKNDREKELLLLYQAQQPQAALLKQYQGKLQKMKALEETVRHQEKVIEKMERVLEDRLQDRSKPPPLNRQQGKPYTGFPMLSASGLPLGSMGENLPVELYSVLLAENAKLRTELDKNRHQQAPIILQQQALPVDPGELGAGGDLTERLQETHGPGHSECTETLPAQDLLSGTSDKFNLLAKLEHAQSRILSLESQLEDSARRWGREKQDLATRLQEQEKGFRHPSNSIIIEQPVSDPPGVAPRGSGGGAGSHRTPKVTGP
# partner: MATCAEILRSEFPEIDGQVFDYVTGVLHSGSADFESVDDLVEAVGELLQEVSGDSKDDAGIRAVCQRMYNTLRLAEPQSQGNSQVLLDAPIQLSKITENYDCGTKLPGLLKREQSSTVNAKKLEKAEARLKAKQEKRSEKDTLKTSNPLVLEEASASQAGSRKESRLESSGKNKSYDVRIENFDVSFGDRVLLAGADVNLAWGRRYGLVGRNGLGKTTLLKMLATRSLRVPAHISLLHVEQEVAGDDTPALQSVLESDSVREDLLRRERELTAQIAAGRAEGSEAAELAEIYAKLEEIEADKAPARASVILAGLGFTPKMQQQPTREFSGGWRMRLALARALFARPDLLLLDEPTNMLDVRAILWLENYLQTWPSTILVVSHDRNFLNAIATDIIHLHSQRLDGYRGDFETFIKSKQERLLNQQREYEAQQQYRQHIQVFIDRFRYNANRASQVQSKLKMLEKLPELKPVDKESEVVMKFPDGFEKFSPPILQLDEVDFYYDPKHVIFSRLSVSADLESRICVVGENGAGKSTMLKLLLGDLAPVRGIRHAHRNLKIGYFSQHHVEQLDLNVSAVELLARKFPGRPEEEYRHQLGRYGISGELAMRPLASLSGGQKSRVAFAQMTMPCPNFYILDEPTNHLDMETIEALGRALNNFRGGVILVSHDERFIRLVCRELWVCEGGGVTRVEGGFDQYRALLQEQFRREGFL
# Variants of: B1
# Conditions: with kctd6_human KCTD6, Q8NC69
row,effect of a mutation on the interaction,Variant
1,disrupting interaction strength,L715S
2,disrupting interaction strength,I646T
3,disrupting interaction strength,R483Q

# Variants of: B2
# Conditions: with homez_human HOMEZ
row,effect of a mutation on the interaction,Variant
1,with no effect,MEAPPVTMMPVTGGTINMVEYLLQGSVLDHSLESLIHRLRGLCDNMEPETFLDHEMVFLLKGQQASPFVLRARRSMDRAGAPWHLRYLGQPEMGDKNRHALVRNCVDIATSENLTDFLMEMGFRMDHEFVAKGHLFRKGIMKIMVYKIFRILVPGNTDSTEALSLSYLVELSVVAPAGQDMVSDDMKNFAEQLKPLVHLEKIDPKRLM [M19V]

# Variants of: B3
# Conditions: with nrm_human NRM
row,effect of a mutation on the interaction,Variant
1,with no effect,MHNFEEELTCPICYSIFEDPRVLPCSHTFCRNCLENILQASGNFYIWRPLRIPLKCPNCRSITEIAPTGIESLPVNFALRAIIEKYQQEDHPDIVTCPEHYRQPLNVYCLLDKKLVCGHCLTIGQHHGHPIDDLQSAYLKEKDTPQKLLEQLTDTHWTDLTHLIEKLKEQKSHSEKMIQGDKEAVLQYFKELNDTLEQKKKSFLTALCDVGNLINQEYTPQIERMKEIREQQLELMALTISLQEESPLKFLEKVDDVCQHVQILKQRPLPEVQPVEIYPRVSKILKEEWSRTEIGQIKNVLIPKMKISPKRMSCSWPGKDEKEVEFLKILNIVVVTLISVILMSILFFNQHIITFLSEITLIWFSEASLSVYQSLSNSLHKVKNILCHIFYLLKEFVWKIVSH [R258C]

# Variants of: B4
# Conditions: with mtus2_human MTUS2, Q5JR59
# mtus2_human MTUS2, Q5JR59, sequence (Q5JR59 whole entry): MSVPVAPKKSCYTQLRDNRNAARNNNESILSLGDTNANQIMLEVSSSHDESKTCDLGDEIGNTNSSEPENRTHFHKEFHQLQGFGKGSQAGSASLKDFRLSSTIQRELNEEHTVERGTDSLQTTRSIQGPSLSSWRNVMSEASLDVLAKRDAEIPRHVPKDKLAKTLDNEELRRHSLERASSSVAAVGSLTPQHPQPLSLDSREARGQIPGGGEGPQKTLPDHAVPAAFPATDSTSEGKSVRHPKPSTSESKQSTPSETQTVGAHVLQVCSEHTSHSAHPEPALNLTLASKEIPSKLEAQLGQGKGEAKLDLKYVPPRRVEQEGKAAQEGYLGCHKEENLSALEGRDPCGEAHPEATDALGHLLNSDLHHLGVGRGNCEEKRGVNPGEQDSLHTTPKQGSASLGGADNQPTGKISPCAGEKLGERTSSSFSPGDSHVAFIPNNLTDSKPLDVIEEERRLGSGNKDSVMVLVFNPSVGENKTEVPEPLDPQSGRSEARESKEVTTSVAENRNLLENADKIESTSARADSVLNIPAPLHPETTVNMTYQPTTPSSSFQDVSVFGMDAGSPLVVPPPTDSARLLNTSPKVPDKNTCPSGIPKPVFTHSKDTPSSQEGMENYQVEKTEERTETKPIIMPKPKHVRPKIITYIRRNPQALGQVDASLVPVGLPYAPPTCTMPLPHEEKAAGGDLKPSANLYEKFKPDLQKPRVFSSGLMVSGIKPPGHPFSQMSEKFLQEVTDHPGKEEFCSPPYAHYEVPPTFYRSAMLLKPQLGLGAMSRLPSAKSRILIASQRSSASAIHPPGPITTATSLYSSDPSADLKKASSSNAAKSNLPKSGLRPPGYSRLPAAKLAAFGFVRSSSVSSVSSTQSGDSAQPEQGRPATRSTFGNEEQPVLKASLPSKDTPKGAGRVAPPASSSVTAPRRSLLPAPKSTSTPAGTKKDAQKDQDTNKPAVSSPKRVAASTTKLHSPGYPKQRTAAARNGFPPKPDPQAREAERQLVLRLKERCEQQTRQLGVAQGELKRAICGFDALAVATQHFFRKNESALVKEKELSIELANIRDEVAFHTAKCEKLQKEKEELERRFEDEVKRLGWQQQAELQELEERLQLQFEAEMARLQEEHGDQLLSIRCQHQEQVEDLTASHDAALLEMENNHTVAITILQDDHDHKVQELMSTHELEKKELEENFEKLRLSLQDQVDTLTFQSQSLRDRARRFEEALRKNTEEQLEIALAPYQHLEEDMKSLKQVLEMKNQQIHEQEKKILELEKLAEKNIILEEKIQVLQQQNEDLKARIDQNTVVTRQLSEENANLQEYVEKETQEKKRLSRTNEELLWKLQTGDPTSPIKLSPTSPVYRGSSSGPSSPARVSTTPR
row,effect of a mutation on the interaction,Variant
1,with no effect,V589I

# Variants of: B5
# Conditions: with abcf3_human ABCF3, Q9NUQ8
row,effect of a mutation on the interaction,Variant
1,with no effect,M25V
2,with no effect,R30L

# From IntAct's records for PubMed 31515488
